The target of the assay is LMP7-His, biotinylated (UniProt P28062). Put plainly: BLI. (In general: In BLI a coated tip is dipped into the sample, and binding shifts an interference pattern.)

For the substance “Nef-GST (from UniProt P03406 1-206) (natural protein)”, the Kd – broadly, a measure of binding affinity in units of concentration – is 735 nM and the wavelength shift amounted to 71.1 pm.

The values are drawn from doi:10.1101/697946.
